The target of assay [1] is T1, Fc tagged human SIRPβ ECD recombinant protein (human, UniProt O00241 30-371).
T1 construct: range 1-371; cloned range includes the signal peptide; also called hSIRPβ; not shown: human IgG Fc region (hFc) of the pCPC vector
Nature of the assay: ELISA. The method, boiled down: (§1)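 Coated antigen + antibody, 37° C. 1 h; wash; HRP anti-mouse or anti-human IgG, 37° C. 1 h; TMB 15 min RT; stop 1N HCl; OD450; EC₅₀.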

The target in assay [2] is T2, full length cyno SIRPα stably expressed on CHOK1 cells (cynomolgus monkey, UniProt A0A2K5VYQ9 31-507).
T2 construct: whole, on cells; also called CHOK1-cyno SIRPα-2A2 cells; CHOK1-cyno SIRPα
T2 sequence: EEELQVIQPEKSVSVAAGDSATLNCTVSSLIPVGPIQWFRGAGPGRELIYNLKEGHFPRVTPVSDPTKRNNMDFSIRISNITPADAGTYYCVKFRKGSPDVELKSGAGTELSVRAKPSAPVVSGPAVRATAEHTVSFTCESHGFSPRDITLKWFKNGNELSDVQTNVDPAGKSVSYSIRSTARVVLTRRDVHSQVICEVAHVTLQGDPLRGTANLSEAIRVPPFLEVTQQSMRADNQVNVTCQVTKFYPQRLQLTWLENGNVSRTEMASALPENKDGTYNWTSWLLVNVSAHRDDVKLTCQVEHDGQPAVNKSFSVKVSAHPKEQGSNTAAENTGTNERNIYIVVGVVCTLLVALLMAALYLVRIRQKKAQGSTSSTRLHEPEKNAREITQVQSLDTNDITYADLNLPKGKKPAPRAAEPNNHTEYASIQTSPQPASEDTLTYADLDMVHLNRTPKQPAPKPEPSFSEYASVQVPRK
The assay is described as follows: FACS on CHOK1 cells. The gist of the method:
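Antibodies bound to 2×10⁵ CHOK1 cells stably expressing full-length SIRPα, 1 h at 4 °C, then fluorescent anti-mouse or anti-human IgG secondary, 1 h at 4 °C. EC50 derived from geometric median fluorescence intensity.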

Assay [3] addresses T3, Fc tagged human SIRPα v2 ECD recombinant protein (human).
T3 construct: range 1-369; cloned range M1-R369 includes the signal peptide; also called hSIRPα V2
Nature of the assay: ELISA. The gist of the method:
as §1
(An ELISA detects its analyte on a solid surface through an enzyme-linked reagent.)

The target of assay [4] is T4, biotin labeled soluble human SIRPα v1 ECD recombinant protein (human, UniProt P78324 31-373, biotin labeled).
T4 construct: extracellular domain
T4 sequence (P78324 31-373): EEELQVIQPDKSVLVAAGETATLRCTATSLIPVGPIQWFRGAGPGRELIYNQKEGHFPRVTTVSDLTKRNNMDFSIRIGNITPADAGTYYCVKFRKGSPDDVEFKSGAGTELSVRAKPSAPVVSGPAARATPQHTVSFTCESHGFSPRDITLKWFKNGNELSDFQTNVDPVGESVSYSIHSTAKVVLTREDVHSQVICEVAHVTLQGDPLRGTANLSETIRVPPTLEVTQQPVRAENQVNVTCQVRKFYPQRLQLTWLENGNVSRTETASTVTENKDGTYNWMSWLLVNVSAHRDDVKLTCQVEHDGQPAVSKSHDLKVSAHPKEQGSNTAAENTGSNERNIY
Nature of the assay: competitive ELISA; competitor 060. As for the experimental part: Competitive ELISA assay was used for epitope binning of 9 functional antibodies. Briefly excessive competitor antibody and biotin labeled soluble human SIRPα v1 ECD recombinant protein were co-incubated with ELISA microplate coated antibody. After washing, HRP-SA was added and incubated at 37° C. for 1 hour. Then, […] of TMB solution (Biotechnology) was added. After incubation for 15 minutes at room temperature, the reaction was stopped by the addition of […] of 1N HCl. OD 450 nm was read. Competition ratio was calculated. The antibodies that can compete each other for binding to SIRPα have the similar binding epitope.

Assay [5] concerns the target T4, biotin labeled soluble human SIRPα v1 …. Nature of the assay: competitive ELISA, biotin-SIRPα v1 ECD to coated CD47 ECD. As for the experimental part:
Competitive ELISA assay was used to determine whether the purified hybridoma antibodies can block CD47 and SIRPα interaction or CD47 and SIRPγ interaction. Briefly, for CD47 and SIRPα interaction blocking activity detection, antibody and biotin labeled soluble human SIRPα v1 ECD recombinant protein were co-incubated with ELISA microplate coated human CD47 ECD recombinant protein.
For CD47 and SIRPγ interaction blocking activity detection, antibody and biotin labeled soluble human CD47 ECD recombinant protein were co-incubated with ELISA microplate coated human SIRPγ ECD recombinant protein. After washing, horseradish peroxidase labeled streptavidin (HRP-SA, Sigma) was added and incubated at 37° C. for 1 hour. Then, 100 μl/well of TMB solution (Biotechnology) was added. After incubation for 15 minutes at room temperature, the reaction was stopped by the addition of 50 μl of 1N HCl. OD 450 nm was read. Blocking ratio and IC₅₀ was calculated. In comparison with other known anti-SIRPα antibodies, 022, 050, 055, and 074 cannot block CD47 and SIRPα interaction. In particular, all of the antibodies of the invention cannot block CD47 and SIRPγ interaction.

T1 sequence (O00241 30-371 limits assumed, form in doubt): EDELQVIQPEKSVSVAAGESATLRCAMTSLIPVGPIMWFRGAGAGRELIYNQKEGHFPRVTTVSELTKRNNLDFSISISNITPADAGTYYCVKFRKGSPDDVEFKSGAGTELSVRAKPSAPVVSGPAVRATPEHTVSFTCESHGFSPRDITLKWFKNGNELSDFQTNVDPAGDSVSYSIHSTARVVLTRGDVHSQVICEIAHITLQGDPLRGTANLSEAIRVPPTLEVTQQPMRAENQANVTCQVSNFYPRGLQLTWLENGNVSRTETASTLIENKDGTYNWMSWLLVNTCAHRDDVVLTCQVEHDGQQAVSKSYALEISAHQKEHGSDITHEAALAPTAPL

B1: chimeric antibody 060c (antibody, V domains shown)
VH: QVQLKESGPGLVAPSESLSITCTVSGFSLTNYDISWIRQSPGKGLEWLGVIWTGGDTNFNSAFMSRLSISKDKSKSQVFLKLNSLQTDDTAIYYCVRVQYFGGSYGPMDYWGQGISVTVSS
VL: DIQMTQASSYLSVSLGGRVTITCEASDHINDWLAWYQQTPGNAPRLLISGATSLETGVPSRFSGSGSGKDYTLSITSLQTEDIATYYCQQYWNTPLTFGAGTRLELK
As a reminder, the EC50 is the midpoint of the concentration-response curve. For the molecule B1, the EC50 in assay [1] turned out to be 0.24 nM. Also, the binding result in assay [2] is “no binding (tested: 10 nM)”.

B2: chimeric antibody 035c (antibody, V domains shown)
VH: QIQLVQSGPELRKPGETVKISCKASGYSFTNYAMNWVKQAPGKVLKWMGFINTYTGEPTYADDFKGRFAFSLETSASTAYLQINNLKNEDTATYFCTRTRGYYDFDGGAFDYWGQGTSLTVSS
VL: DIVMTQSQKFMSTSIGDRVSVTCKASQNVGTHLAWYQQKPGQSPKALIFSASYRYIGVPDRFTGSGSGTDFTLTITNVQSEDLAEYFCQQYNTYPLTFGAGTKLELK
Consider B2, for which the EC50 in assay [3] and in assay [1] was 0.08 nM in each case. Besides, in assay [2], the “MFI at 10 nM” value was found to be 24600 MFI.

B3: chimeric antibody 022c (antibody, V domains shown)
VH: QIQLVQSGPELKKPGETVKISCKASGYTFTDYAMHWVKQAPGKGLKWMGWKNTETGESTYAEDFKGRFAFFLETSASTAYLQINNVKNEDTATYFCARGGYGSNYVMDYWGQGTSVIVSS
VL: DIQMTQSSSSFSVSLGDRVTITCKASEDIYNRLAWYQQKPGNAPRLLISGATSLETGVPSRFSGSGSGKDYTLSITSLQTEDVATYYCQQYWNSPRTFGGGTKLEIK
Turning to B3, the EC50 in assay [3] worked out at 0.11 nM; in assay [1], 0.08 nM. The “MFI at 10 nM” value in assay [2] was 23500 MFI.

B4: Antibody 022 (hybridoma antibody) (antibody, V domains shown)
VH: QIQLVQSGPELKKPGETVKISCKASGYTFTDYAMHWVKQAPGKGLKWMGWKNTETGESTYAEDFKGRFAFFLETSASTAYLQINNVKNEDTATYFCARGGYGSNYVMDYWGQGTSVIVSS
VL: DIQMTQSSSSFSVSLGDRVTITCKASEDIYNRLAWYQQKPGNAPRLLISGATSLETGVPSRFSGSGSGKDYTLSITSLQTEDVATYYCQQYWNSPRTFGGGTKLEIK
notes: mouse hybridoma antibody
Consider B4, for which the “% Competition” value in assay [4] was determined as 26%.

B5: chimeric antibody 001c (antibody, V domains shown)
VH: EVKLEESGGGLVQPGGSMKLSCVASGFTFRNYWMNWVRQSPERGLEWIAEISLKSNTYATHYAESVKGRFAISRDGSKSSFYLQMNDLRAEDTGIYYCTTFTKVVADWHLDVWGAGTTVTVSS
VL: DVLMTQTPLSLPVSLGDQASISCRSSQNIVHSNGNTYLEWYLQKPGQSPKLLIYKVSNRFSGVPDRFSGSGSGTDFTLRISRVEAEDLGVYYCFQGSHVPFTFGSGTKLEIK
With B5, the values for the EC50 in assay [3] and in assay [1] were 0.09 nM and 0.12 nM, respectively. Further, in assay [2], the “MFI at 10 nM” value came to 24900 MFI.

B6: Antibody 001 (hybridoma antibody) (antibody, V domains shown)
VH: EVKLEESGGGLVQPGGSMKLSCVASGFTFRNYWMNWVRQSPERGLEWIAEISLKSNTYATHYAESVKGRFAISRDGSKSSFYLQMNDLRAEDTGIYYCTTFTKVVADWHLDVWGAGTTVTVSS
VL: DVLMTQTPLSLPVSLGDQASISCRSSQNIVHSNGNTYLEWYLQKPGQSPKLLIYKVSNRFSGVPDRFSGSGSGTDFTLRISRVEAEDLGVYYCFQGSHVPFTFGSGTKLEIK
notes: mouse hybridoma antibody
The IC50 is the point on the concentration scale where inhibition reaches its midpoint. As to B6, the “% Competition” value in assay [4] is 19%. Also, the IC50 in assay [5] stood at 1.4 nM.

B7: Antibody 002 (hybridoma antibody) (antibody, V domains shown)
VH: EVKLEESGGGLVQPGGSMILSCVASGFTFRNYWMNWVRQSPERGLEWIAEITLKSNTYATHYAESVKGRFAISRDDSKSSFYLQMNDLRPEDTGIYYCTTFTKVVADWHLDVWGAGTTVTVSS
VL: DVLMTQTPLSLPVSLGDQASISCRSSQNIVHSNGNTYLEWYLQKPGQSPKLLIYKISNRFSGVPDRFSGSGSGTDFTLRISRVEAEDLGVYYCFQGSHVPFTFGSGTKLEIQ
notes: mouse hybridoma antibody
Consider B7, for which, in assay [4], the “% Competition” value is -10%. The IC50 in assay [5] came to 1.3 nM.

B8: chimeric antibody 002c (antibody, V domains shown)
VH: EVKLEESGGGLVQPGGSMILSCVASGFTFRNYWMNWVRQSPERGLEWIAEITLKSNTYATHYAESVKGRFAISRDDSKSSFYLQMNDLRPEDTGIYYCTTFTKVVADWHLDVWGAGTTVTVSS
VL: DVLMTQTPLSLPVSLGDQASISCRSSQNIVHSNGNTYLEWYLQKPGQSPKLLIYKISNRFSGVPDRFSGSGSGTDFTLRISRVEAEDLGVYYCFQGSHVPFTFGSGTKLEIQ
On to B8, for which the EC50 is 0.06 nM in assay [3] and 0.11 nM in assay [1]. Further, the “MFI at 10 nM” value in assay [2] was determined as 17100 MFI.

B9: chimeric antibody 032c (antibody, V domains shown)
VH: EVRLEESGGGLVQPGGSMKLSCVVSGFTFRNYWMNWVRQSPERGLEWIAEITLKSNTYATHYAESVKGRFAISRDDSKSSFYLQMNDLRPEDTGIYYCTTFTKVVADWHLDVWGAGTTVTVSS
VL: DVLMTQTPLSLPVNLGDQASISCRSSQNIVHSNGNTYLEWYLQKPGQSPKLLIYKVSNRFSGVPDRFSGSGSGTDFTLRISRVEAEDLGVYYCFQGSHVPFTFGSGTKLEIK
As to B9, the figures for the EC50 in assay [3] and in assay [1] were 0.11 nM and 0.12 nM, respectively. Moreover, in assay [2], the “MFI at 10 nM” value amounted to 19000 MFI.

B10: chimeric antibody 074c (antibody, V domains shown)
VH: QVQLQQPRAELVKPGASVMLSCKASGYTFSSYWIHWVRQGPGQGLEWIGLIHPNSGNTDCSETFKNKATLTVDTSSSTAYMQLSSLASEDSAVYYCARDGASYDWFVHWGQGTLVTVSA
VL: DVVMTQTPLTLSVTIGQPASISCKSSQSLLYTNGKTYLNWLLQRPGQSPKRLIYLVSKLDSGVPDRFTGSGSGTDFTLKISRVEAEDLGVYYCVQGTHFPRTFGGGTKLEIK
Turning to B10, the concentration giving a half-maximal response (EC50) in assay [3] is 0.14 nM; in assay [1], 0.11 nM. The “MFI at 10 nM” value in assay [2] was 12200 MFI.

B11: Antibody 074 (hybridoma antibody) (antibody, V domains shown)
VH: QVQLQQPRAELVKPGASVMLSCKASGYTFSSYWIHWVRQGPGQGLEWIGLIHPNSGNTDCSETFKNKATLTVDTSSSTAYMQLSSLASEDSAVYYCARDGASYDWFVHWGQGTLVTVSA
VL: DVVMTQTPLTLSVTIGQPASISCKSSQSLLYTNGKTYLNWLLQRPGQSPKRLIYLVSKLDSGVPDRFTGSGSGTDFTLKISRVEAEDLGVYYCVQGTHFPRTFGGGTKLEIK
notes: mouse hybridoma antibody
Consider B11, for which the “% Competition” value in assay [4] was -1%.

B12: chimeric antibody 050c (antibody, V domains shown)
VH: QIQLVQSGPELKKPGETVKISCKASGYTFTHYSMHWVKQAPGKGLKWMGWINTETAEPTYVDDFKGRFAFSLEASASTAFFQINNLKNEDTATYFCARGGLRQGDYWGQGTTLTVSS
VL: QIVLTQSPPIMSASPGEKVTLTCSATSSVSASYLYWFQQKPGSSPKLWIYSTSNLASGVPARFSGSGSGTSYSLTISNMEPADAASYFCHQWSSYPYTFGGGTKLEIK
For the molecule B12, the EC50 turned out to be 0.1 nM in assay [3] and 0.08 nM in assay [1]. Also, the “MFI at 10 nM” value in assay [2] stood at 20500 MFI.

B13: Antibody 050 (hybridoma antibody) (antibody, V domains shown)
VH: QIQLVQSGPELKKPGETVKISCKASGYTFTHYSMHWVKQAPGKGLKWMGWINTETAEPTYVDDFKGRFAFSLEASASTAFFQINNLKNEDTATYFCARGGLRQGDYWGQGTTLTVSS
VL: QIVLTQSPPIMSASPGEKVTLTCSATSSVSASYLYWFQQKPGSSPKLWIYSTSNLASGVPARFSGSGSGTSYSLTISNMEPADAASYFCHQWSSYPYTFGGGTKLEIK
notes: mouse hybridoma antibody
In the case of B13, the “% Competition” value in assay [4] is 17%.

B14: chimeric antibody 055c (antibody, V domains shown)
VH: EVKLVESEGGLVQPGDSMKLSCTASGFTFSDYFMTWIRQVPEKGLEWIANVNYDGRSTYYLDSLKSRFIISRDNANNILYLQMSSLKSEDTATYYCAREGSQTPLYAVDYWGQGTSVTVSS
VL: DIVMTQSQKFMSTTVGDRVNITCKASQNVGTAVAWYQQKPGQSPKLLIYLASNRYTGVPDRFTGSGSGTDFTLTVSDMRSEDLADYFCQQYSIYPFTFGSGTKLEIK
In the case of B14, the EC50 in assay [3] stood at 0.11 nM. In assay [2], the “MFI at 10 nM” value was determined as 8060 MFI.

(Values after US20210347908A1 (ELPISCIENCE SUZHOU BIOPHARMA, published 2021).)
